B1: TRIM9 (parent)
chain: CVQCKMPVCYQCLEEGKHSSHEVK
B2: CDKN1A (parent)
chain: GRKRRQTSMTDFYHSKRRLIFSKR

Variants of: B1
Assay: protein stability index of a GFP-peptide fusion (GPS, HEK-293T) (PSI 1-6); higher = more stable
Details: c terminus: a fixed tail appended
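Also: lentivirally expressed fusions sorted by FACS into six bins by GFP to DsRed ratio, PSI derived from sequencing read proportions per bin multiplied by bin number.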

Variant	protein stability index
P7I	3.69
P7G	4.59
P7M	4.33
P7E	4.35
P7T	3.08
P7L	3.28
P7F	2.48
P7S	3.65
P7R	3.51
P7D	3.11
P7N	4.14
P7W	3.18
P7V	3.52
P7H	3.23
P7C	4.06
P7K	3.84
P7Q	3.83
P7A	4.02
E15H	3.36
E15G	4.15
E15Q	3.76
E15D	4.07
E15R	3.47
E15K	3.67
E15M	3.75
E15C	4.14

Variant	protein stability index
E15I	3.82
E15V	3.47
E15L	3.65
E15S	3.81
E15W	2.72
E15F	2.82
E15A	4.08
E15P	3.88
E15Y	3.36
E15T	3.69
E15N	3.82
M6L	3.99
M6V	4.13
M6Y	3.79
M6R	4.17
M6Q	4.36
M6T	3.96
M6G	4.93
M6P	3.62
M6K	4.46
M6I	3.4
M6A	3.95
M6F	3.89
M6S	4.97
M6D	4.71
M6C	3.73

Variant	protein stability index
M6H	4.3
M6N	4.22
M6E	4.37
Q11Y	3.52
Q11C	4.83
Q11I	3.4
Q11T	4.12
Q11R	3.77
Q11F	3.65
Q11K	3.95
Q11P	3.76
Q11W	2.93
Q11V	3.27
Q11D	4.05
Q11N	4.27
Q11E	3.57
Q11M	3.17
Q11H	3.2
Q11S	3.67
Q11G	4.92
Q11L	2
C12Q	4.03
C12H	4.34
C12M	3.7
C12D	4.2
C12G	3.81

Variant	protein stability index
C12I	2.28
C12E	4.25
C12Y	3.58
C12L	3.48
C12V	3.45
C12N	3.67
C12W	2.92
C12K	4.8
C12P	3
C12T	3.42
C12F	3.19
C12A	3.35
C12S	4.48
L13D	4.04
L13V	4.45
L13G	4.81
L13E	4.16
L13M	4.21
L13A	4.22
L13I	4.08
L13R	4.13
L13P	4.47
L13H	4.55
L13N	3.46
L13T	3.08
L13K	4.53

Variant	protein stability index
L13S	4.7
L13F	3.86
L13W	4.7
L13C	4.88
L13Q	4.48
L13Y	3.48
C4P	4.11
C4Y	3.86
C4N	3.3
C4W	3.17
C4E	3.38
C4M	3.37
C4K	4.13
C4R	2.83
C4V	2.9
C4S	3.23
C4F	2.66
C4I	2.44
C4G	3.15
C4T	2.93
C4L	3.68
C4D	4.01
C4H	3.62
C4A	3.2
C4Q	3.39
K17I	3.61

Variant	protein stability index
K17E	3.89
K17A	4.14
K17S	3.42
K17G	4.38
K17R	2.96
K17N	3.65
K17C	3.47
K17L	3.86
K17P	3.75
K17V	3.81
K17H	4.47
K17Y	3.54
K17M	3.3
K17F	3.1
K17Q	4.5
K17D	2.88
Y10P	3.63
Y10S	3.97
Y10A	4.26
Y10W	2.51
Y10V	3.74
Y10C	3.58
Y10Q	4.16
Y10M	4.08
Y10L	4.61
Y10D	4.83

Variant	protein stability index
Y10I	3.71
Y10F	4
Y10K	4.15
Y10T	3.52
Y10H	4
Y10R	4.27
Y10E	4.32
Y10N	4.27
G16D	4.58
G16L	3.49
G16Y	3.41
G16R	3.27
G16C	4.33
G16Q	2.64
G16K	3.57
G16P	3.9
G16M	3.71
G16F	3.73
G16H	3.36
G16N	4.09
G16S	3.7
G16A	4.02
G16W	2.8
G16I	3.25
G16V	3.62
G16E	3.94

Variant	protein stability index
G16T	3.83
C1F	2.58
C1R	3.58
C1P	2.86
C1T	3.75
C1E	3.95
C1W	2.98
C1L	3.27
C1V	3.23
C1K	3.65
C1I	3.08
C1Y	1.74
C1Q	4.03
C1M	2.93
C1G	2.88
C1H	4.52
C1N	2.79
C1D	3.77
E14Y	3.15
E14T	3.53
E14Q	4.17
E14P	3.75
E14R	3.83
E14G	4.14
E14H	3.34
E14I	3.55

Variant	protein stability index
E14D	2.99
E14C	4.34
E14L	2.93
E14V	3.34
E14K	3.99
E14S	3.68
E14A	3.12
E14M	3.17
E14N	3.66
E14F	2.97
Q3Y	3.04
Q3S	4.12
Q3P	2.94
Q3C	3.99
Q3M	3.4
Q3E	3.82
Q3G	3.73
Q3A	2.96
Q3R	4.22
Q3T	3.56
Q3F	3.1
Q3H	4.52
Q3D	3.91
Q3N	4.49
Q3K	3.73
Q3W	2.88

Variant	protein stability index
Q3I	3.6
K5M	3.87
K5W	3.03
K5C	3.84
K5F	2.52
K5T	3.38
K5R	4.15
K5Q	2.83
K5I	2.05
K5S	3.9
K5E	4.22
K5V	2.41
K5H	3.8
K5L	2.58
K5G	4.38
K5D	3.75
K5A	3.4
K5P	3.52
K5Y	2.56
K5N	4.04
V2A	3.97
V2N	3.46
V2K	4.29
V2L	3.5
V2S	4.25
V2Y	3.71

Variant	protein stability index
V2I	4.02
V2P	4.18
V2T	3.85
V2E	3.92
V2G	3.6
V2M	3.67
V2C	3.98
V2F	3.51
V2R	3.8
V2Q	4.04
V2W	3.16
V2H	4.63
V2D	4.16
H18S	4.42
H18V	3
H18P	3.28
H18F	3.78
H18N	3.94
H18C	3.79
H18M	3.93
H18A	4.04
H18Q	3.47
H18T	4.11
H18K	3.7
H18L	3.55
H18I	3.41

Variant	protein stability index
H18E	3.56
H18D	4.46
H18R	3.82
H18G	3.63
V8C	3.95
V8W	3.76
V8I	3.66
V8S	4.53
V8L	3.65
V8N	4.49
V8P	3.61
V8E	4.41
V8Q	4.33
V8Y	3.01
V8D	4.21
V8H	4.89
V8R	3.75
V8M	4.13
V8T	3.79
V8F	4.03
V8A	4.13
V8K	5.1
V8G	4.82
C9W	2.96
C9R	3.31
C9I	3.18

Variant	protein stability index
C9H	3.5
C9F	2.59
C9V	4.07
C9D	4.45
C9L	3.28
C9T	4.41
C9N	3.87
C9Y	2.8
C9P	3.02
C9M	3.64
C9S	4.24
C9G	4.47
C9Q	4.09
C9A	4.19

Variants of: B2
Assay: as above
Details: c terminus: a fixed tail appended

Variant	protein stability index
R24P	3.22
R24N	3.1
R24Y	2.91
R24Q	3.2
R24W	3.26
R24S	3.62
R24T	2.21
R24V	2
